# According to the DeepSol protein solubility set:
# Assay: soluble on expression in E. coli; label from the status in PepcDB or PDB records
row,Sequence,soluble on expression in E. coli
1,MKFLQFALLFFIICITTTDASKKTQRVLKKVGKRFSLSEFGVVQRLDYMWRTAETVEAARNHSAELVARLLLSQSSADNLKFQESADILYSLMDNNFEGKICGGDETLNFYQMSDYWKRQRKTYRRNEKENVTWRAYPIEDNAYNKFMVRFNSKSTWGYSATMIYVVHMRLLGEKKYSNYTLTKIEEVGACTEYGGVSLENTNLYELDPERLETRDKLLKHLQELFYTEQKVSEIPFDWIYSSASEKELKIEVCHGTELKKMAKKDFIKWWEWFQMMCRPVKGENEHTLVQITGGVYDRLVFRVTMLVHVGTEDIHPTEEFSFKLQFKYDVHGDKEWLINKFEVMCPTIAVPEADLMKKHALVYREIIGSRLQLMVNNPELWYNFAEAIVALTSPTYEVENCAGKGEEMEKGTDMYQLKHTFWKLNKDTHGRMEGYTLGKKNDISETGEKMWARIRIIWTPGNDKLVYDSRWTFYLEWNSDLQAFTIYKMILQCPTVARIGEIKYYSSLNKPTTNTTSQ,not soluble
2,MAMQIKGVIFDFDGTLLDSVELRITAWKKAFQNFGVNVPEDLIRPMIGYPGIDLAKKFVKNPLDVEMLQEDYFLKNIESAKFFQDVIPTLAELRKRGIKTAVVTSTRRIVMQKFSLQVDHVVTIDDVSKGKPDPEPYLKALKMMGIPAEECIVVGDIENDLIPAKKLRCISVLVKHGRDISSNYADYEIENIADILNVIDHLAEKNNR,not soluble
3,MLIISNAVHLPDHEIELNAIRAQGAGGQNVNKVSSAVHLRFDIQASSLPPFYKERLLALNDQRISGDGVVVIKAQQYRTQEQNREDALERLAELIRSVAKVQKARRPTKPTRGSQKRRLDGKAKRGAVKAGRGKVDFLEHHHHHH,not soluble
4,MGSDKIHHHHHHMTSVSPHKKAKALKPTSRRPAKELCSECGLCDTYYIHYVKEACAFINQQIGELEVETHTRSRHLDNPDELYFGVHQDMIAARKQQPIEGAQWTGIVSSIAIEMLNRGLVEGVVCVQNTKEDRFQPMPIIARTPEEILAARVNKPTLSPNLSVLEQIEKSGMKRLLVIGVGCQIQALRAVEKQLGLEKLYVLGTPCVDNVNRAGLQKFLETTSRSPETVVHYEFMQDFRVHFKHEDGSSETVPFFGLKTNKLKDVFAPSCMSCFDYVNSLADLVVGYMGAPFGWQWIVVRNDTGKEMLDLVQDQLDTQPVTSKGNRKEAVQQSIPAYDKGVTLPMWAAKLMGVVIEKIGPKGLEYARFSIDSHFTRNYLYVKRNHPEKLEAHVPEFAKRIVEQYKLPE,not soluble
5,MGSDKIHHHHHHYDLSDVNTDDAVMGESWVAPLGMGYVTSDDVVNVEKVPSIREVDGAYVMIYDGEMKIKGKSLRAASDKVEIASEDITTGDIDGLFDGDFVLALTNPHITLKSNVKNASLDCSLSIEAENTSKKEATSSDFTLSTVSPNIWIGPLDPKTDAFKFVKNEKLPGIVQIVPQKIHLSLSADSKQWTNAPADALSELRYAVELPLTPAPEFSAVSVERIEDAFDEDFVDYIFSDGSARIYGEVTNEMPFDMSIEMVIMDENNVPVDIQFPAQEVKGQSGEVIFEITKEDMPKMKDARHIDLNLHLTGRDQGEALKKGQKTTFNLKLKKEGGISI,not soluble
6,MSLRRTCVIGAGPSGLAASRVLASRGIPFDCYEAGSGIGGLWRYGNDNGMSGVYASLHANISKESMSFSSLPMPDSYPVFPHHTQVLAYLESYAETFGLHGHIGLRTEVTSVRPVEGGGWEVTRRSRGGAEAETDRYTEVVVANGHHWDPRLPDPAVPGAGVFEGSAVHAHAYRSPEPYAGQRVLVVGMGNSGCEIAAEISRSAARTFLSARAVAHVFPKMLLGRPADHWAVSRAAVLPRFLKDPGMALLLRLARGAPALYGLPEPVRRPLAAHPSTSDELLVQLARGAVTAKPGIRSFGRDSVSFTDGSRETVDAVVYATGYSLSFPFLAPAVFAAPDGRTELYLRTVPPRLPGLFFMGLAQPAGAAFPLLEPQAEWIADLIEGEVLLPTPAEMTRSIARARERHDKVYAPSYRHGIEIDICAYRRALRRELREGHHHHHH,not soluble
7,MAFSIMGILTIMEFLVYRDTRMKYEYEVDKDFTSKIRLNIDITVAMKCQYVGADVLDLAETMVTSAQGLAYQPVSLCSRTISNTSCGVSGKLWIQSTENVKVVTDAVSLVPNRLNSCSAGDI,not soluble
8,MGSDKIHHHHHHMPATVPFVGPEAIERQRNLPVKARIGANESGFGPSPKVHLALQAASSDIWKYADPENFDLKAALAAHYGLAADNFAVGEGVDDLLGLTVRLVIEQGLPVVTSLGGYPTFNFHVNGFGGQLVTVPYRQDREDLDGLLEAVRRENAPLAYLANPDNPMGSWHESHDVVAFARALPETCLLILDEAYSETAPAGSIPAVDALIDLPNVLRMRTFSKAYGLAGARIGYAIGTPGTVSAFDKIRNHFGMVRTSVAAALAALADQDYLTATVARIIAARERISSIARQNGLQPLASATNFVAVDCGRDPAYARSIVDGLMQHGVFIRMPGVAPLNRCIRISAGLPEDLDLLEQALPIVLRDIG,not soluble
9,KPPAESASQTAVAITQSSVKTMAPALQAIVDQSWQLQLSASPEMAYGMGDKSAAGKLQDLSPEALAKLNQGQIAILVQLKALDRSKLSKEDKINAQILEDQLQNEVDLYKYKDYYLPITAESGFHAYISSIAQGRFNTQEDYQNYLDKLKALPNYFAQQTYWLKQGLKEGITPPKATLKGFENSISAYILPVEKSSYFKPFTQYPNHFTEAQKAQLTQQGRALVEQNVIPTYQAFYDFMTQEYMPNTRDNIAANSLPNGDAFYENRVRYYTTLDITSAEVHELGLKEVKRIRQEMEQVIKSVGFKGSFADFLYFLRTDPQFYATSADQLLKEAAFIAKKADATLPKYFGKLPRKPYGIAPVPAEIAPKYTSGRYSGSNRDDEPGYYWVNTYALDKRPLYELEALTLHEAVPGHHLQISLNSELSSQPDFRRYSYISAFGEGWGLYSEYLGLEAGFYQDPYSNFGRLTYEMWRAARLVVDTGMHAQGWSREQAIEFMANNTALSLHNVTTEIDRYITWPGQALSYKIGELTIKRLRAKAEQALGDKFDIRAFHDAVLENGSVPMSVLEQQINDFIEAKKAA,soluble
10,HDGIERELTIAVNNIIPGDLLVAFIRDFERQFTSTTLTVDLEVYNGCWDALYSKRADLVYGAPHAVPSSEGIISEPVGQMEWDFVVSPLHPLAAKRHPLENSELRHYPAVCIRDTSVNFPPMQAWLLEGQKPIFVPDFATAIALIE,not soluble
11,MGSDKIHHHHHHMTVLHSVDFFPSGNASVAIEPRLPQADFPEHHHDFHEIVIVEHGTGIHVFNGQPYTITGGTVCFVRDHDRHLYEHTDNLCLTNVLYRSPDRFQFLAGLNQLLPQELDGQYPSHWRVNHSVLQQVRQLVAQMEQQEGENDLPSTASREILFMQLLLLLRKSSLQENLENSASRLNLLLAWLEDHFADEVNWDAVADQFSLSLRTLHRQLKQQTGLTPQRYLNRLRLMKARHLLRHSEASVTDIAYRCGFSDSNHFSTLFRREFNWSPRDIRQGRDGFLQ,not soluble
12,MTNITASIVLYNNPIDQIRQCIESMQADTRVHVLLVDNSEKKGGYTGLAADNVEILDAPGNVGFGRGHNLVLGRLAALRSEVHLVVNPDIVVSAGCVQAVADVLRQRKDVTLVGPRVVSPDGALYRSCKLLPTPWNLFARRFAPRQLYAAADARYELEAFGYDRELRLHNLSGAFLAFRSEAFTALGGFDPRYFMYLEDVDICRRAAGLGAVIFLPQAEVVHEHGKGSYRSWRLLREHMRSAILYFNRFGWFVDAERRLLNRETLARVNDMRSVVLEHHHHHH,not soluble
13,MQAQTVVHPSIKTKTTFAIVVDQKSYDEAKSEIDAYRTSIEKEGLGTYLLIDDWKRPEPIREQLVKLHENEKTPLEGCVFIGDIPIPMIRDAHHLSSAFKRSPKANWQKSSVPSDRYYDDFGLKFDYIKQDSLIPDYHYMTLRADSKQYISPDIYSARIRPLHLEGENRYQMLRDYLKKAVAEKAKQNAFDQLTMARGHGYNSEDPLAWSGEQIALREQLPQIFKSGNTVKFYDFNMRYPMKPLYLNEIQREGLDVMLFHHHGGPTMQYINGYENGSGINLSIENAKIFLRSKVPSYAKKHGREAAIKEYAKQYGVPESWCAEAFDEEKIKSDSIVNRNMDIYTEDIRLLTPNARFILFDACFNGSFHLDDNIVGSYIFNKGKTIATMGCTVNTIQDKWPDEFLGLLAAGMRIGQFTRFTCFLENHLIGDPTFHFTNNAGLDMDINQALVAQEGNVTFWKKQLNSPMADMQAMALRQLSMANYSGLVELLKKSYHESNYFVVRLEALRLLALNYPTEVADVLQTAMNDSYELIRRYAVEYVEKNCNPELLPAWIESYLLRGHENRHRFRIFSAINTFDHDMALNELKKQAADWSFYDSSYVNELLEYLPRQKKGLERDFALIDSPESTTKQIQSEISRFRNKPIAKAIEPLLNIIKNESQEEELRILAAETLGWYNLYYNKADIIKELNTFRTSNQKLMNEVTKTINRLKSQNR,not soluble
14,MLFKRPDTETLYFALVNKDPAYEGVAYVCVTSTKIFCRFTCTARKPKIENCRFRETITECLEAGFRPCKRCKPMLSYGTPDGTVTALLTALENEPARRWREEDVVALGHDPSTVRRSFKRRFGMSFLEIARLRRVGDAAESLASGEAVIGAQIDAGYESGSGFRSAINQLFGTSPAAMKGRGFLKGDWIDTPIGPMLAVADDHALHLLEFADRPALPAELKRLKARTGADMVLGRTAVTGQIAAELAAYFAGRSGSFETRLAGHGTPFERDVWRNLREIPAGEIVSYSSLATAMERPTAVRAVARANGANQLAIVVPCHRVLGADGSLTGYGGGLWRKKWLIEHERRMARGLEHHHHHH,soluble
15,MGSDKIHHHHHHAFCLDNGLGRTPPMGWMSWTAFYCEIDCVKHPTGCINEQLYKDMADQLVSGGYDKVGYKSVHIDDCWSEMERDSHGILVANKTRFPSGMKALAKYMHDRGLKFGIYEDYGTKTCGGYPGSYKHEKVDAQTFAAWDVDYLKLDGCNIDQAMMPIGYPLFEKELNETGRPIMYSCSW,not soluble
16,QLTPTFYRETCPNLFPIVFGVIFDASFTDPRIGASLMRLHFHDCFVQGCDGSVLLNNTDTIESEQDALPNINSIRGLDVVNDIKTAVENSCPDTVSCADILAIAAEIASVLGGGPGWPVPLGRRDSLTANRTLANQNLPAPFFNLTQLKASFAVQGLNTLDLVTLSGGHTFGRARCSTFINRLYNFSNTGNPDPTLNTTYLEVLRARCPQNATGDNLTNLDLSTPDQFDNRYYSNLLQLNGLLQSDQELFSTPGADTIPIVNSFSSNQNTFFSNFRVSMIKMGNIGVLTGDEGEIRLQCNFVNG,soluble
17,MSLRINGQAELSGANTFLQAQVQLTGEVEIKLQKPLQLTAAKAATEIHLRIPDFVVWKDLFESTPFAVPAPLHVLTGDIELDVHAQLTDLDSPLQADATAQSRLSSKNQKLFVKATADLETLGKILKPRGLKVHADVVLQDVHLQAPPLRLAVPPQVLPDKRFVMRKDLDIIEEEKPAPTSRIPFELLWSVNIKTEKPVLISSNLLQSPVPVALDMQVQSDRKPQGKVMVQSFPFEFFRKKATVNNVDLIFHPDTVAPELSGKISYSNPEVNIRILLLGNTQRPIVNLESDPQLNQQQILSVLLFDKSLDELNEDEVNSTSNMSRAVSDGALGLFSLMFLSSTPIQSISYDPNSQSYTARMRLDDNTTFSMQSNMTEQRQFTLRRRLGGNWSVRTELSQEDSRADVVQTLLEWMRRFEGHHHHHH,not soluble
18,MATSFPVLCLPNKNIRDVLQNMSTCNLIAFSLCSKATKSHVMHLKNDIQQISIKAFLSIDINILSHNQEVTSLVFFKKDYGRWNFESCESVTATETLTPLEPESDRVWVKRGFKLRDWIDHVMEIFNCSRIHEIYISRIGHEEHYISLSNAVKELKTETIFFSFCSDTVVQSVVANVQSNDISFNLSFNIEPSMQKHKVLTRHFERVSFSKDDTREALTLNDLLITNVSQLNISAHHLSFEELNIFIRHLISGSNRRLKIVGIVCAEATRNMQILLKGISHSVYSAELKIVARNENDYQLGDTIYVYQNCGRRLAMQTYLFEGVEKIVMRVY,not soluble
